Measured values: publication PMC12815460, “A high-resolution analysis of arrestin2 interactions responsible for CCR5 endocytosis” (eLife, 2026)

Legend:
[1] = biological target: arrestin2^1-418 (full-length human arrestin2) (human) (UniProt P49407)
[2] = biological target: CCR5pp3 phosphopeptide C-terminal phosphopeptide (Homo sapiens) (UniProt P51681); details: cited from earlier work
AP2β2 (Homo sapiens) = AP2β2 (Homo sapiens) (UniProt P63010); assay: EPR; details: cited from earlier work
[3] = biological target: T1, clathrin-N (clathrin heavy chain 1 N-terminal domain, residues 1–364) (UniProt Q00610 1-364); assay: NMR titration; 50 μM 15N,2H-labelled clathrin-N observed (1H-15N HSQC-TROSY, 900 MHz), unlabelled arrestin2 construct added up to equimolar, no phosphopeptide; 20 mM HEPES, 150 mM NaCl, pH 7.4, 303 K; details: both partners purified
T1 construct: the construct used here is 1–364; Tag removed with 3C protease; pETM33 may add GST besides the His tag (surmise); Used 15N,2H-labelled or unlabelled; also called clathrin heavy chain N-terminal domain; CLTC Clathrin propeller; source: E. coli BL21 (DE3), purified (Ni-NTA, reverse IMAC, gel filtration)
T1 sequence (looked up): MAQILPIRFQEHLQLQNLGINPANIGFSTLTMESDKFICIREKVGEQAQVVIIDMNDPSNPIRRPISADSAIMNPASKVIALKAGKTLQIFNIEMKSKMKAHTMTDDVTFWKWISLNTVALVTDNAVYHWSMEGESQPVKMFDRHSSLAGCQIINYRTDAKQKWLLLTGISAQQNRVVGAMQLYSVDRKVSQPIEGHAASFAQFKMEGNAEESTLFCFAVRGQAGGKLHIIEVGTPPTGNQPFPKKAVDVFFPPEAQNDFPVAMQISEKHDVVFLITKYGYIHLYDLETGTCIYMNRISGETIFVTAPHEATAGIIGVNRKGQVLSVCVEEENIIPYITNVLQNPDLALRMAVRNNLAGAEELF

[4] = biological target: T1, clathrin-N (clathrin heavy chain 1 …); assay: NMR titration; 50 μM Ile-δ1-13CH3,2H-labelled arrestin2^1-393 observed (1H-13C HMQC), unlabelled clathrin-N up to 600 μM; I377 13C shifts fitted with a 1:1 isotherm; apparent; 20 mM HEPES, 150 mM NaCl, pH 7.4, 303 K; details: both partners purified
AP2β2 = biological target: T2, AP2β2 (Homo sapiens, UniProt P63010); assay: SEC
T2 chain: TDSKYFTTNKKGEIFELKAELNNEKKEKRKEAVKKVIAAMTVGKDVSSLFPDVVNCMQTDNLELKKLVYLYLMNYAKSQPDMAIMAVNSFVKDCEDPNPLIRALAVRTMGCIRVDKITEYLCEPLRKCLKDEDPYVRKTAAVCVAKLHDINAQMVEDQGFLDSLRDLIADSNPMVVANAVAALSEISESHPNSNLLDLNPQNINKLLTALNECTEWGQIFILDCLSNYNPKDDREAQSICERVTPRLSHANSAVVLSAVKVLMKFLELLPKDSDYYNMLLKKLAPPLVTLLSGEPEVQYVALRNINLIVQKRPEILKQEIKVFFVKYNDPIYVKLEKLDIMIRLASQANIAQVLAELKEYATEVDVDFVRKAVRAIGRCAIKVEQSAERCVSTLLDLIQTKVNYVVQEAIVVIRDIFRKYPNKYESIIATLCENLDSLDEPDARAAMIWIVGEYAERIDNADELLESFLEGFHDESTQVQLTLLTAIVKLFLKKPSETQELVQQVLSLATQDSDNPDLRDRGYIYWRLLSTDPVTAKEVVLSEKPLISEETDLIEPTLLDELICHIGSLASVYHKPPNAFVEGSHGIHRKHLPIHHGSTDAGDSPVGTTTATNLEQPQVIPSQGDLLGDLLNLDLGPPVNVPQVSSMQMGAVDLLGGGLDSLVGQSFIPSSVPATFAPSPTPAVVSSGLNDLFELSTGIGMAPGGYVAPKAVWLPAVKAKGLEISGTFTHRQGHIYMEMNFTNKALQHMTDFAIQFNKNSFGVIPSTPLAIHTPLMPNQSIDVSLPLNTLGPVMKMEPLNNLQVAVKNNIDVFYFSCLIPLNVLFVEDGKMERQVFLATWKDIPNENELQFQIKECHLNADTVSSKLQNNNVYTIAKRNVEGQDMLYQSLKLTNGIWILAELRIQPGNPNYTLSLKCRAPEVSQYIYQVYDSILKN

CCR5pp3 phosphopeptide C-terminal phosphopeptide (Homo sapiens), sequence (P51681 332-352): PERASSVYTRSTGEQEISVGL

Q: With “AP2β2^701-937 (C-terminal domain of the β2 subunit of the AP2 complex, residues 701–937) (from UniProt P63010 701-937) (domain or fragment)” as the molecule, how does the protection of CCR5pp6-activated arrestin2^1-418 from trypsin: proteolysis midpoint at 1-, 2- and 5-molar equivalents of AP2β2^701-937 (10 to 30 min) [1] read?
A: 30 min

Q: For arrestin2 (from UniProt P49407), which Kd [2] is on record?
A: 200 µM

Q: For “arrestin β20 peptide 383-402 (from UniProt P49407)”, which Kd (AP2β2 (Homo sapiens)) is on record?
A: 9 µM

B1: arrestin2^1-393 (truncated human arrestin2, residues 1–393) (domain or fragment)
chain: MGDKGTRVFKKASPNGKLTVYLGKRDFVDHIDLVDPVDGVVLVDPEYLKERRVYVTLTCAFRYGREDLDVLGLTFRKDLFVANVQSFPPAPEDKKPLTRLQERLIKKLGEHAYPFTFEIPPNLPCSVTLQPGPEDTGKACGVDYEVKAFLAENLEEKIHKRNSVRLVIRKVQYAPERPGPQPTAETTRQFLMSDKPLHLEASLDKEIYYHGEPISVNVHVTNNTNKTVKKIKISVRQYADIVLFNTAQYKVPVAMEEADDTVAPSSTFSKVYTLTPFLANNREKRGLALDGKLKHEDTNLASSTLLREGANREILGIIVSYKVKVKLVVSRGGLLGDLASSDVAVELPFTLMHPKPKEEPPHREVPENETPVDTNLIELDTNDDDIVFEDFAR
modifications: Cys replacements inferred from the printed arrestin2-ΔCBL sequence (L150, V242, V251, S269), assumed to share the parent construct of Isaikina et al. 2023; not stated in this text for 1-393. Isotope …
Q: For B1, which “stoichiometry N” value [3] is on record?
A: 1

Q: And the Kd [4]?
A: 104 ± 9 µM

B2: arrestin2 (protein)
chain: MGDKGTRVFKKASPNGKLTVYLGKRDFVDHIDLVDPVDGVVLVDPEYLKERRVYVTLTCAFRYGREDLDVLGLTFRKDLFVANVQSFPPAPEDKKPLTRLQERLIKKLGEHAYPFTFEIPPNLPCSVTLQPGPEDTGKACGVDYEVKAFCAENLEEKIHKRNSVRLVIRKVQYAPERPGPQPTAETTRQFLMSDKPLHLEASLDKEIYYHGEPISVNVHVTNNTNKTVKKIKISVRQYADICLFNTAQYKCPVAMEEADDTVAPSSTFCKVYTLTPFLANNREKRGLALDGKLKHEDTNLASSTLLREGANREILGIIVSYKVKVKLVVSRGGLLGDLASSDVAVELPFTLMHPKPKEEPPHREVPENETPVDTNLIELDTNDDDIVFEDFARQRLKGMKDDKEEEEDGTGSPQLNNR
modifications: CCR5pp4 phosphopeptide
Q: Which Kd (AP2β2) does the source give for B2 here?
A: 44 µM

B3: arrestin2 (protein)
chain: MGDKGTRVFKKASPNGKLTVYLGKRDFVDHIDLVDPVDGVVLVDPEYLKERRVYVTLTCAFRYGREDLDVLGLTFRKDLFVANVQSFPPAPEDKKPLTRLQERLIKKLGEHAYPFTFEIPPNLPCSVTLQPGPEDTGKACGVDYEVKAFCAENLEEKIHKRNSVRLVIRKVQYAPERPGPQPTAETTRQFLMSDKPLHLEASLDKEIYYHGEPISVNVHVTNNTNKTVKKIKISVRQYADICLFNTAQYKCPVAMEEADDTVAPSSTFCKVYTLTPFLANNREKRGLALDGKLKHEDTNLASSTLLREGANREILGIIVSYKVKVKLVVSRGGLLGDLASSDVAVELPFTLMHPKPKEEPPHREVPENETPVDTNLIELDTNDDDIVFEDFARQRLKGMKDDKEEEEDGTGSPQLNNR
modifications: CCR5pp6 phosphopeptide
Q: With B3 as the molecule, how does the Kd (AP2β2) read?
A: 9 µM

B4: arrestin2 (protein)
chain: MGDKGTRVFKKASPNGKLTVYLGKRDFVDHIDLVDPVDGVVLVDPEYLKERRVYVTLTCAFRYGREDLDVLGLTFRKDLFVANVQSFPPAPEDKKPLTRLQERLIKKLGEHAYPFTFEIPPNLPCSVTLQPGPEDTGKACGVDYEVKAFCAENLEEKIHKRNSVRLVIRKVQYAPERPGPQPTAETTRQFLMSDKPLHLEASLDKEIYYHGEPISVNVHVTNNTNKTVKKIKISVRQYADICLFNTAQYKCPVAMEEADDTVAPSSTFCKVYTLTPFLANNREKRGLALDGKLKHEDTNLASSTLLREGANREILGIIVSYKVKVKLVVSRGGLLGDLASSDVAVELPFTLMHPKPKEEPPHREVPENETPVDTNLIELDTNDDDIVFEDFARQRLKGMKDDKEEEEDGTGSPQLNNR
modifications: CCR5pp3 phosphopeptide
Q: Which Kd (AP2β2) does the source give for B4 here?
A: 40 µM
